The text below walks through data of IntAct's records for PubMed 19696784.

B1: Microtubule protein alp7 (Schizosaccharomyces pombe (strain ATCC 38366 / 972)), Q9URY2 (parent)
chain: MSDIVSSSTDYSRRSPSSSSIGTNETDHTGFHEKRQGASSESLIPPAQRSSEESMPAPKLFPKLTSKPNPQLNLKDTLNKRVSDRLQALELNKSFDFSGTPRPMHPISHPLSQHKTPEFKHRKRNVESILTPKNPSLFSSSNAASQRGSLNTAPSNFAYSHSSSLQTSASSRPPVLSNGSFPRQTNTAPLNPPVHLKDNIRNSATPSTSQADIPTQYPINSTQKQQAKYEAEIEGYKAKLAGTYHEISVLQNTIVNVSGQLIAVNDQLQQLRSGKASTSPSTKDTNMRLVEGHNEETLALQRGKYTQEEVDKLIQERMEKVAEDLHAQYSAKHTQKINAFKANYARKYEATIQELQNQIGTAPNAPKISNSNWEEERRALKADNQTLQKQLEKAIQERQDMSDFLNNFKADMAKSDKLLMQQQSQQTGDLETLRLQLQALQEELRVEREERQQLIQMSEDLVIAMDQLNLEQKS
partner: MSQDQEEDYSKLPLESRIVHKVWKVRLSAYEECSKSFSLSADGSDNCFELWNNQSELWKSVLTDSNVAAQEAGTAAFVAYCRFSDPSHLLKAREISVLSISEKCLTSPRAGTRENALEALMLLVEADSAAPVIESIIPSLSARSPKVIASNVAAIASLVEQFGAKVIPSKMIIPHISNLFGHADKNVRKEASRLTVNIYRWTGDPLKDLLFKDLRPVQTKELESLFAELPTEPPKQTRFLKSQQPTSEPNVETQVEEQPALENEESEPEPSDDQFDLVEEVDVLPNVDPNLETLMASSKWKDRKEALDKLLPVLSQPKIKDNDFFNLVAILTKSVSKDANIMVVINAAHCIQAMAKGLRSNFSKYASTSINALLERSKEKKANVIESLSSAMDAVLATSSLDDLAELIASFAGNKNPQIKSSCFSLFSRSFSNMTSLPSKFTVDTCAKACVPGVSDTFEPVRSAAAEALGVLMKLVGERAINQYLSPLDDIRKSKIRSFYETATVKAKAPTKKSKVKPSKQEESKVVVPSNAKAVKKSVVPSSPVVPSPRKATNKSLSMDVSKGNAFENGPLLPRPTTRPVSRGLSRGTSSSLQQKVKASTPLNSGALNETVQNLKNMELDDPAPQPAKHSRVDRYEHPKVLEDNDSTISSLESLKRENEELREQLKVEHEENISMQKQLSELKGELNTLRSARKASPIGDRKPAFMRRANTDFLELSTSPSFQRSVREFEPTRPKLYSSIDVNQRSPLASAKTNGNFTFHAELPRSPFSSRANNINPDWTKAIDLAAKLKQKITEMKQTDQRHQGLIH

This assay covers variants of B1. The conditions noted are these: with alp14_schpo alp14, O94534.
Turning to L461A, the “effect of a mutation on the interaction” value is on record as “disrupting interaction”.
